For assay [1], the target named is SNAP-25 peptide comprising amino acids 134-206 of SEQ ID NO: 5 (human). The assay is described as follows: SPR (BIAcore 3000), peptide on CM5 chip, antibody in flow. Background: In SPR one partner is held on a chip, and binding of the other changes the refractive index at the surface.
Assay [2] addresses SNAP-25 peptide comprising amino acids 134-197 of SEQ ID NO: 5 (human). Described as above.

Broadly, the Kd is the equilibrium constant for the complex coming apart. Usually koff stands for a measure of how fast the partners let go of each other. Low values mean a long-lived complex, high ones a short-lived complex. What is called kon is the second-order rate constant of association. A low value points to slow association. Take “MC-6050 mouse α-SNAP-25 monoclonal antibody (Research & Diagnostic Antibodies)”: in assay [1], the dissociation constant Kd came out at 19800 nM, the koff amounted to 0.00607 s⁻¹ and the on-rate constant (kon) is 306 M⁻¹ s⁻¹. Also, in assay [2], the Kd stood at 0.497 nM, the koff was 0.000882 s⁻¹ and the kon amounted to 1.78e+06 M⁻¹ s⁻¹.
As for “MC-6053 mouse α-SNAP-25 monoclonal antibody (Research & Diagnostic Antibodies)”, in assay [1], the Kd was determined as 240 nM and the koff was 2.56e-05 s⁻¹. In addition, in assay [2], the Kd amounted to 0.508 nM, the koff was 0.00118 s⁻¹ and the on-rate (kon) stood at 2.32e+06 M⁻¹ s⁻¹.

Source of the values: patent US20120149104A1.
